# From CN113150161A
# Target: 小菜蛾钙黏蛋白毒素结合区(PxCad-TBR) (小菜蛾 (Plutella xylostella))
# Assay: competitive ELISA on coated PxCad-TBR, 500 μg/mL Cry2Aa, competitor 2G4 (3.75 μg/mL, molar ratio 294:1)
substance,measurement,value
活化Cry2Aa毒素(分子量68 kDa) (from UniProt P0A377 50-633),抑制作用 (%),44%
